One test concerns OPM-2 xenografts. As to the kind of experiment: OPM-2 xenografts in effector-cell-negative NSG mice. The format is in vivo. The protocol: OPM-2 xenografts were prepared and conducted as previously described. NSG mice (NOD.Cg-Prkdcscid Il2rgtm1Wj1/SzJ) from The Jackson Laboratory (strain code 05557) were used. This strain lacks effector cells and eliminates the ADCC mechanism for all antibodies. AB095, an antibody that targets tetanus toxoid, was run as control. Dosing of test ADCs was normalized such that equal masses of the PBD component were delivered.
OPM-2 xenografts were prepared and conducted as previously described. NSG mice (NOD.Cg-Prkdcscid Il2rgtm1Wj1/SzJ) from The Jackson Laboratory (strain code 05557) were used. This strain lacks effector cells and eliminates the ADCC mechanism for all antibodies. AB095, an antibody that targets tetanus toxoid was run as control. Dosing of test ADCs was normalized such that equal masses of the SN38 component were delivered.
The combination of Hu34C3-MMAE E2 plus carfilzomib inhibited tumor growth (TGImax 43% (FIG. 26A) and TGImax 59% (FIG. 26B)) at similar levels to Hu34C3-MMAE E2 alone.
Efficacy of Hu34C3-MMAE E2 in combination with pomalidomide ((also known as 4-Amino-2-(2,6-dioxopiperidin-3-yl)isoindole-1,3-dione; marketed under the tradename POMALYST by Celgene Corporation, Summit, N.J. 07901) and/or dexamethasone ((also known as 8S,9R,10S,11S,13S,14S,16R,17R)-9-fluoro-11,17-dihydroxy-17-(2-hydroxyacetyl)-10,13,16-trimethyl-6,7,8,9,10,11,12,13,14,15,16,17-dodecahydro-3H-cyclopenta[a]phenanthren-3-one) was determined in subcutaneous xenografts of OPM-2 cells (van Rhee et al., 2009 Mol. Cancer Therapeutics 8: 2616-24). Effector-cell-negative mice were used (NSG strain) in this experiment. Vehicle (PBS/DMSO) was run as a control. ADCs were dosed at 3 or 6 mg/kg i.p.; pomalidomide was dosed at 20 mg/kg i.p. and dexamethasone was dosed at 10 mg/kg i.p.
Efficacy of Hu34C3-MMAE E2 was determined in subcutaneous xenografts of OPM-2 cells (van Rhee et al., 2009 Mol. Cancer Therapeutics 8: 2616-24). These xenografts were treated with bortezomib twice a week for two weeks. […] These tumors were re-randomized and either continued with bortezomib treatment or were switched to lenalidomide plus dexamethasone, pomalidomide, Hu34C3-MMAE E2, or Hu34C3-MMAE E2 plus pomalidomide treatments.

The next test has as its target T1, human CS1 (Homo sapiens, UniProt Q9NQ25).
T1 construct: expressed in transfected cells; host or cells: 293s cells
The test is described as follows: Flow-cytometry competition assay with AF488-labeled PDL241 (murine antibodies, Example 2). The format is binding. The note with it: 293s cells transfected with human CS1; 60 μg/mL unlabeled test antibody, 6 μg/mL labeled PDL241; less than 20% inhibition = does not compete. The protocol: 293s cells transfected with human CS1 (300,000 cells per data point) were incubated at various concentrations with an AF488-labeled PDL241 antibody. The concentration at which 80% of maximal binding occurred was identified (6 μg/mL) and used for the subsequent competition assays.
For the competition assays, transfected 293s cells (300,000 cells per data point) were incubated for 30 min (on ice) with a tenfold excess of unlabeled test antibody (60 μg/mL). After the incubation, 6 μg/mL of AF488-labeled PDL241 was added to the cells and incubated on ice for 30 minutes. After this incubation, the cells were washed with PBS+1% FBS, and binding of AF488-labeled PDL241 was determine by flow cytometry.

Test [1] has as its system L-363 human multiple myeloma cells. As to the kind of experiment: In vitro proliferation assay (CellTiter-Blue), L-363 cells. It is filed as cell-based. The settings on record: four days. As to the method:
All antibodies were conjugated to each of monomethyl auristatin E (“MMAE”; auristatin microtubule inhibitor), monomethyl auristatin F (“MMAF”; auristatin microtubule inhibitor) and duocarmycin (DNA damaging drug) using previously described methods (Doronina et al., 2003, Nat Biotechnology 21(7):778-784; Polson et al., 2007, Blood 1102:616-623). Drug loading for each ADC was similar. 10,000-20,000 cells (L-363 human multiple myeloma cells) expressing HuCS1 were plated into 96-well plates, and different amounts of ADCs added to the cells. Four days post addition of ADC, cell viability was measured using the CellTiter-Blue® Cell Viability Assay (Promega), and IC50 values were calculated.
On the technique in general: The colour change of resazurin is a common sign of viable cells or microbes.

Where [2] appears, read: Example 29, low-dose Hu34C3-MMAE E2 3 mg/kg i.p., pomalidomide 20 mg/kg i.p., dexamethasone 10 mg/kg i.p.
[3] abbreviates: antibody conjugated to MMAF, read-out: IC50, MMAF ADC.
Setting [4] is: antibody conjugated to duocarmycin, read-out: IC50, Duo ADC.
Setting [5] is: antibody conjugated to MMAE, read-out: IC50, MMAE ADC.

Where two headings read alike, the source gives them in different places.

T1 sequence (Q9NQ25 23-335): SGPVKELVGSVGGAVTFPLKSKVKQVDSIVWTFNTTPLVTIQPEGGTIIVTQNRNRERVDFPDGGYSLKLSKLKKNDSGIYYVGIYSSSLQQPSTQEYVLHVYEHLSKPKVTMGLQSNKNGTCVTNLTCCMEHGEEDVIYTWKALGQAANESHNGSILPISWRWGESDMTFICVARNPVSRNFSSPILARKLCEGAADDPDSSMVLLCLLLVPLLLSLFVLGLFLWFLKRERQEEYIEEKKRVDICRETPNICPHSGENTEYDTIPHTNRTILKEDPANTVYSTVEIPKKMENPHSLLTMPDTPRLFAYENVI

As for `CC(C)C[C@H](NC(=O)[C@H](Cc1ccccc1)NC(=O)c1cnccn1)B(O)O` [bortezomib, [(1R)-3-methyl-1-[[(2S)-1-oxo-3-phenyl-2-[(pyrazinylcarbonyl)amino]propyl]amino]butyl]boronic acid], the TGImax in the test on OPM-2 xenografts (Example 27, Hu34C3-MMAE E2 3 mg/kg, bortezomib 1 mg/kg) turned out to be 58%. In addition, the “TGImax at end of two week treatment” value in the test with OPM-2 xenografts (Example 31, bortezomib twice a week for two weeks) came out at 66%.
In the case of `CC(C)C[C@H](NC(=O)[C@H](CCc1ccccc1)NC(=O)CN1CCOCC1)C(=O)N[C@@H](Cc1ccccc1)C(=O)N[C@@H](CC(C)C)C(=O)[C@@]1(C)CO1` [carfilzomib, (S)-4-Methyl-N-((S)-1-(((S)-4-methyl-1-((R)-2-methyloxiran-2-yl)-1-oxopentan-2-yl)amino)-1-oxo-3-phenylpropan-2-yl)-2-((S)-2-(2-morpholinoacetamido)-4-phenylbutanamido)pentanamide], the TGImax in the test with OPM-2 xenografts (Example 28, single agents, carfilzomib at 1.5 and 3 mg/kg) is reported as < 10%.
For `C[C@@H]1C[C@H]2[C@@H]3CCC4=CC(=O)C=C[C@]4(C)[C@@]3(F)[C@@H](O)C[C@]2(C)[C@@]1(O)C(=O)CO` [dexamethasone], the TGImax in the test with OPM-2 xenografts (setting [2]) is given as 25%.
Consider `Nc1cccc2c1C(=O)N(C1CCC(=O)NC1=O)C2=O` (centres unmarked) [pomalidomide, 4-Amino-2-(2,6-dioxopiperidin-3-yl)isoindole-1,3-dione], for which the TGImax in the test on OPM-2 xenografts (setting [2]) was found to be 34%.

B1: Mu12D10 (conjugate)
VH: EVKLVESEGGLVQPGSSMKLSCTASGFTFSDYFMAWVRQVPEKGLEWVASINYDGNSTYFLDSLKSRFIISRDNAKNILYLQMSSLKSEDTATYYCARDRGFYFDYWGQGTTLTVSS
VL: DVVMTQTPLSLPVSLGDQASISCRFSQSLVHRNGNTYLHWYLQKPGQSPKLLIYKVSNRFSGVPDRFSGSGSGTDFTLKISRVEAEDLGVYFCSQSTHVRPYTFGGGTKLEIR
modifications: conjugate
Usually IC50 stands for the concentration at which inhibition is half-maximal. Consider B1, for which the “Competition with AF488-labeled PDL241 for binding” value (“Competition” below) in the test with human CS1 is given as “do not compete with PDL241”. In addition, the values for the IC50 in test [1] (setting [3]) and in test [1] (setting [4]) were 0.15 nM and 0.2 nM, respectively.

B2: Mu31D2 (conjugate)
VH: EVKLVESEGGLVQPGSSMKLSCTASGFTFSDYYMAWVRQVPEKGLEWVADINYDGGSTYYLDSLKSRFIISRDNAKNILCLQMSSLKSEDTATYYCARDRGYYFDYWGQGTTLTVSS
VL: DVVMTQTPLSLPVSLGDQASISCRSSQSLVHSNGNTYLHWYLQKPGQSPKLLIYKVSNRFSGVPDRFSGSGSGTDFTLKISRVEAEDLGVYFCSQSTHVPPFTFGGGTKLEIK
modifications: conjugate
For the molecule B2, the “Competition” value with human CS1 is recorded as “do not compete with PDL241”. The results for the 50% inhibitory concentration (IC50) in test [1] (setting [5]), in test [1] (setting [3]) and in test [1] (setting [4]) were 3.5 nM, 0.12 nM and 0.2 nM, respectively.

B3: Mu14C11 (conjugate)
VH: EVKLVESEGGLVQPGSSMKLSCTASGFTFSDYYMAWVRQVPEKGLEWVASINYDGSSTYYLDSLKSRFIISRDNAKNILYLQMSGLKSEDTATYSCARDRGFYFDYWGQGTTLTVSS
VL: DVVMTQTPLSLPVSLGDQASISCRSSQSLVHRNGNTYLHWYLQKPGQSPKLLIYKVSNRFSGVPDRFSGSGSGTDFTLKISRVEAEDLGVYFCSQSTHVPPYTFGGGTKLEIK
modifications: conjugate
B3: the “Competition” value with human CS1 is on record as “do not compete with PDL241”. For the same molecule, the IC50 is 0.25 nM in test [1] (setting [3]) and 0.31 nM in test [1] (setting [4]).

B4: Mu27A12 (conjugate)
VH: EVKLVESEGGLVQPGSSMKLSCTASGFTFSDYYMAWVRQVPEKGLEWVAEINYDGSSTYYLDSLKSRFIISRDNAKNILYLQMSNLKSEDTATYYCARDRGFYFDYWGQGTTLTVSS
VL: DVVMTQTPLSLPVSLGDQASISCRSSQSLVHNNGNTYLHWYLQKPGQSPKLLIYKVSNRFSGVPDRFSGSGSGTDFTLKISRVEAEDLGVYFCSQSTHVPPYTFGGGTKLEIK
modifications: conjugate
B4: the “Competition” value with human CS1 is listed as “do not compete with PDL241”. Besides, the IC50 stood at 3.5 nM in test [1] (setting [5]), 0.11 nM in test [1] (setting [3]) and 0.19 nM in test [1] (setting [4]).

B5: Mu34C3: murine anti-CS1 antibody, VH SEQ ID NO: 5, VL SEQ ID NO: 6; in Table 5 tested as MMAE, MMAF, duocarmycin ADCs (antibody, V domains shown)
VH: EVKLVESEGGLVQPGSSMKLSCTASGFTFSDYYMAWVRQVPEKGLEWVASINYDGSSTYYLDSLKSRFIISRDNAKNILFLQMNSLKSEDTATYYCARDRGYYFDYWGQGTTLTVSS
VL: DVVMTQTPLSLPVSLGDQASISCRSSQSLVHSNGNTYLHWYLQKPGQSPKLLIYKVSNRFSGVPDRFSGSGSGTDFTLKISRVEAEDLGVYFCSQSTHVPPFTFGGGTKLEIK
For B5, the “Competition” value with human CS1 is reported as “do not compete with PDL241”. The IC50 in test [1] (setting [5]) amounted to 1.3 nM; in test [1] (setting [3]) it was 0.08 nM; in test [1] (setting [4]), 0.25 nM.

The values above are taken from patent publication US10011657B2, “Anti-CS1 antibodies and antibody drug conjugates” (AbbVie Biotherapeutics Inc., priority 2014, dated 2018).
